Data: article PMC10511788 (2023)

Biological target: M1-linked di-ubiquitin (UniProt P0CG48 1-76; P0CG48 1-76)
Test: ITC

Kd: 15.9 µM
B1: mouse HOIL-1L NZF domain (residues Pro192-Gln250) T207E (domain or fragment)
chain: GPLGSPEPVGWQCPGCTFINKPERPGCEMCCRARPETYQIPASYQPDEEERARLAGEEEALRQYQQ
